Experimental findings from publication doi:10.1101/085266 are described below.

Experiment [1] concerns the target Bacillaceae bacterium MTCC 10057 Geobac cargo protein with C-terminal His6 tag (Bacillaceae bacterium MTCC 10057). Put plainly: SEC.
In experiment [2] the target is Kuenenia stuttgartiensis encapsulin without the N-terminal cytochrome domain (Kuenenia stuttgartiensis) (UniProt Q1Q6L7). Put plainly: co-purification with encapsulin capsids.
Experiment [3] concerns the target Streptomyces sp. AA4 hemerythrin cargo with C-terminal His6 tag (Streptomyces sp. AA4). The experiment can be described thus: SEC.
The target in experiment [4] is Streptomyces sp. AA4 encapsulin capsid protein (Streptomyces sp. AA4). The experiment can be described thus: co-purification with encapsulin capsids.
The target of experiment [5] is Bacillaceae bacterium MTCC 10057 encapsulin capsid protein (Bacillaceae bacterium MTCC 10057). Put plainly: co-purification with encapsulin capsids.

For “Bacillaceae bacterium MTCC 10057 Geobac cargo protein with C-terminal His6 tag (natural protein)”, the stoichiometry N in experiment [1] was found to be 2.

In experiment [2], “NIR domain (N-terminal cupredoxin domain) of the Kuenenia stuttgartiensis NIR-HAO fusion protein (domain or fragment)” gave a copies of cargo per 180mer capsid (copies per 180mer capsid) of 15.

“Streptomyces sp. AA4 hemerythrin cargo with C-terminal His6 tag (natural protein)” had a stoichiometry N in experiment [3] of 2.

“Streptomyces sp. AA4 hemerythrin cargo (Heme), with C-terminal targeting peptide (natural protein)”: the molecules of cargo per 60 subunit capsid (molecules per 60 subunit capsid) in experiment [4] amounted to 20.

For the substance “Bacillaceae bacterium MTCC 10057 Geobac cargo protein, with C-terminal targeting peptide (natural protein)”, in experiment [5], the molecules of cargo per 180 subunit capsid (molecules per 180 subunit capsid) was 150.

As to “Bacillaceae bacterium MTCC 10057 Ferredoxin cargo (Fer), with N-terminal targeting peptide (natural protein)”, in experiment [5], the molecules of cargo per 180 subunit capsid (molecules per 180 subunit capsid) stood at 10.
